Article PMC5961147 (Nucleic Acids Research, 2018)

Target: the molecule itself
Assay: cross-linking

B1: Flag-SART3 (natural protein, UniProt Q15020 1-963, looked up)
chain: MATAAETSASEPEAESKAGPKADGEEDEVKAARTRRKVLSRAVAAATYKTMGPAWDQQEEGVSESDGDEYAMASSAESSPGEYEWEYDEEEEKNQLEIERLEEQLSINVYDYNCHVDLIRLLRLEGELTKVRMARQKMSEIFPLTEELWLEWLHDEISMAQDGLDREHVYDLFEKAVKDYICPNIWLEYGQYSVGGIGQKGGLEKVRSVFERALSSVGLHMTKGLALWEAYREFESAIVEAARLEKVHSLFRRQLAIPLYDMEATFAEYEEWSEDPIPESVIQNYNKALQQLEKYKPYEEALLQAEAPRLAEYQAYIDFEMKIGDPARIQLIFERALVENCLVPDLWIRYSQYLDRQLKVKDLVLSVHNRAIRNCPWTVALWSRYLLAMERHGVDHQVISVTFEKALNAGFIQATDYVEIWQAYLDYLRRRVDFKQDSSKELEELRAAFTRALEYLKQEVEERFNESGDPSCVIMQNWARIEARLCNNMQKARELWDSIMTRGNAKYANMWLEYYNLERAHGDTQHCRKALHRAVQCTSDYPEHVCEVLLTMERTEGSLEDWDIAVQKTETRLARVNEQRMKAAEKEAALVQQEEEKAEQRKRARAEKKALKKKKKIRGPEKRGADEDDEKEWGDDEEEQPSKRRRVENSIPAAGETQNVEVAAGPAGKCAAVDVEPPSKQKEKAASLKRDMPKVLHDSSKDSITVFVSNLPYSMQEPDTKLRPLFEACGEVVQIRPIFSNRGDFRGYCYVEFKEEKSALQALEMDRKSVEGRPMFVSPCVDKSKNPDFKVFRYSTSLEKHKLFISGLPFSCTKEELEEICKAHGTVKDLRLVTNRAGKPKGLAYVEYENESQASQAVMKMDGMTIKENIIKVAISNPPQRKVPEKPETRKAPGGPMLLPQTYGARGKGRTQLSLLPRALQRPSAAAPQAENGPAAAPAVAAPAATEAPKMSNADFAKLFLRK
  stoichiometry N: 2
